Assay results reported in article PMC7736784 (2020).

Target: Sso7d-NanoLuc large fragment fusion

Binder | Kd [nM]
NVTGYRLFKKISN [NS4] | 8.5
NVSGWRLFKKISN [NS5-Stoffel fusion (NanoLuc small fragment NS5)] | 3.4
GVTGWRLCERILA [NS6] | 900
